± gives the standard deviation of the averaged measurements.
The sequences below were run on ATP (assay: switch fluorescence ratio, 500 uM ATP over buffer (Cy3 cluster intensity, sum of 5 cycles each) (fold (ratio)); higher = stronger signal-on switching upon ATP binding; sequences stand for … in TCGTCGGCAGCGTCAGATGTGTATAAGAGACAGTTTTTTTTTTTTTTTTTTTTTTTTT…TC). Conditions: aptamer strand: ATP DNA aptamer (quencher-CACCTGGGGGAGTATTGCGGAGGAAGG + anchor), 100 nM annealed; ATP concentration: 500 uM.
Summary of the method: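 Switching-strand clusters labelled with Cy3 on a modified Illumina MiSeq flow-cell were annealed to 100 nM quencher-labelled ATP aptamer, imaged in selection buffer, and re-imaged after 15 min with 500 uM ATP at 22 °C. This was done over five cycles with NaOH stripping and re-annealing in between. The fluorescence ratio is summed target-cycle over summed buffer-cycle Cy3 intensity per cluster, averaged per switch-domain sequence, excluding clusters outside 100-1000 RFU.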
GAAGTAGCGG showed a switch fluorescence ratio of 1.018 ± 0.0084. In the case of GAAGTAGTAA, the switch fluorescence ratio is reported as 1.02 ± 0.03. For GAAGTCCGCG, the switch fluorescence ratio was 1.42 ± 0.077. With GAAGTCCGGT the switch fluorescence ratio was 0.955 ± 0.024. Sequence GAAGTCTGGG has a switch fluorescence ratio of 0.9767 ± 0.0021. GAAGTGCATT gave a switch fluorescence ratio of 0.98 ± 0.053. GAAGTGGGAT was tested, and the switch fluorescence ratio was 0.984 ± 0.022. Work on GAAGTGGGTG yielded a switch fluorescence ratio of 1.11 ± 0.17. GAAGTGTGGC was tested, and the switch fluorescence ratio was 1.08 ± 0.031. With GAAGTTAGTT the switch fluorescence ratio was 0.993 ± 0.038. For GAAGTTGGAG, the switch fluorescence ratio was 0.97 ± 0.053. For GAAGTTGTCG, the switch fluorescence ratio was 1.02 ± 0.02. GAATAAGAGA gave a switch fluorescence ratio of 0.974 ± 0.036. GAATAAGATC showed a switch fluorescence ratio of 1.02 ± 0.042. With GAATAAGATT the switch fluorescence ratio was 1.01 ± 0.061. GAATAAGGTA was tested, and the switch fluorescence ratio was 0.993 ± 0.011. In the case of GAATATTGTA, the switch fluorescence ratio is reported as 0.988 ± 0.013. For GAATATTTAA, the switch fluorescence ratio was 0.998 ± 0.014. GAATCACTAA showed a switch fluorescence ratio of 1 ± 0.059. Work on GAATCAGGG yielded a switch fluorescence ratio of 0.972 ± 0.034. In the case of GAATCATAGT, the switch fluorescence ratio is reported as 1.003 ± 0.0083. Work on GAATCCGGTT yielded a switch fluorescence ratio of 0.989 ± 0.019. GAATCCGTAG showed a switch fluorescence ratio of 1.16 ± 0.03. GAATCGGTAG gave a switch fluorescence ratio of 0.9783 ± 0.0013. GAATCTTGCG gave a switch fluorescence ratio of 0.95976 ± 0.00094. For GAATGAGAGA, the switch fluorescence ratio was 1 ± 0.037. For GAATGGAGCC, the switch fluorescence ratio was 0.995 ± 0.022. GAATGGCATG showed a switch fluorescence ratio of 0.991 ± 0.034. GAATGGCTGC showed a switch fluorescence ratio of 1.04 ± 0.0048. For GAATGGGAGG, the switch fluorescence ratio was 0.975 ± 0.02. Sequence GAATGGGATT has a switch fluorescence ratio of 0.976 ± 0.018. For GAATGGGGGG, the switch fluorescence ratio was 1.01 ± 0.078. GAATGGGGTA showed a switch fluorescence ratio of 1.011 ± 0.0057. With GAATGGGTTA the switch fluorescence ratio was 0.965 ± 0.018. GAATGGTCGC showed a switch fluorescence ratio of 0.963 ± 0.026. GAATGTAGTC showed a switch fluorescence ratio of 1.01 ± 0.013. GAATGTGGGT gave a switch fluorescence ratio of 0.994 ± 0.013. With GAATGTTAAT the switch fluorescence ratio was 1.04 ± 0.027. With GAATTAAATA the switch fluorescence ratio was 1.02 ± 0.018. GAATTAGCAC showed a switch fluorescence ratio of 1.05 ± 0.038. Work on GAATTATTGT yielded a switch fluorescence ratio of 0.959 ± 0.022. GAATTATTTT was tested, and the switch fluorescence ratio was 1.12 ± 0.16. Sequence GAATTCACGG has a switch fluorescence ratio of 1.06 ± 0.038. Sequence GAATTGGATC has a switch fluorescence ratio of 1.02 ± 0.019. With GAATTGGGCT the switch fluorescence ratio was 0.9679 ± 0.0032. GAATTGGGGA was tested, and the switch fluorescence ratio was 1.01 ± 0.029. In the case of GAATTGGTAA, the switch fluorescence ratio is reported as 1.013 ± 0.0076. In the case of GAATTTAGTC, the switch fluorescence ratio is reported as 1.06 ± 0.077. GAATTTCGAT was tested, and the switch fluorescence ratio was 0.976 ± 0.011. Sequence GAATTTGGGG has a switch fluorescence ratio of 0.961 ± 0.03. GAATTTTAGG gave a switch fluorescence ratio of 0.9889 ± 0.0096. Work on GAATTTTTGG yielded a switch fluorescence ratio of 0.997 ± 0.017. Work on GAATTTTTGT yielded a switch fluorescence ratio of 0.956 ± 0.018. GAATTTTTTA was tested, and the switch fluorescence ratio was 0.999 ± 0.018. GACACAGTGT was tested, and the switch fluorescence ratio was 0.98 ± 0.026. GACACGTGTT was tested, and the switch fluorescence ratio was 1.03 ± 0.045. With GACACTATTG the switch fluorescence ratio was 0.999 ± 0.016. GACACTGCCC gave a switch fluorescence ratio of 1.13 ± 0.048. Work on GACAGAAGTG yielded a switch fluorescence ratio of 1.02 ± 0.019. GACAGCAGGT showed a switch fluorescence ratio of 1.07 ± 0.011. With GACAGCGGGT the switch fluorescence ratio was 1.01 ± 0.015. In the case of GACAGGGCGG, the switch fluorescence ratio is reported as 0.983 ± 0.049. GACAGGGGTT gave a switch fluorescence ratio of 1.04 ± 0.015. GACAGGGTTA was tested, and the switch fluorescence ratio was 1.001 ± 0.0086. GACAGGTATC gave a switch fluorescence ratio of 1.01 ± 0.057. In the case of GACAGTGTGG, the switch fluorescence ratio is reported as 0.997 ± 0.049. With GACAGTTGGG the switch fluorescence ratio was 0.999 ± 0.017. GACATAAAAA was tested, and the switch fluorescence ratio was 0.986 ± 0.076. With GACATAAGTT the switch fluorescence ratio was 1 ± 0.044. GACATATTAT showed a switch fluorescence ratio of 1.013 ± 0.0057. GACATCCCCT gave a switch fluorescence ratio of 1.04 ± 0.047. For GACATGAAGG, the switch fluorescence ratio was 1 ± 0.015. Sequence GACATGGCAG has a switch fluorescence ratio of 1.02 ± 0.04. GACATGGCGG showed a switch fluorescence ratio of 1.01 ± 0.024. GACATGGGGA showed a switch fluorescence ratio of 1.06 ± 0.015. GACATGGGTG gave a switch fluorescence ratio of 1.02 ± 0.031. For GACATTAGTC, the switch fluorescence ratio was 0.99 ± 0.011. GACATTTCTT was tested, and the switch fluorescence ratio was 1.01 ± 0.011. Work on GACATTTTTA yielded a switch fluorescence ratio of 0.975 ± 0.022. With GACCCAGGTA the switch fluorescence ratio was 2.75 ± 0.18. GACCCGCTAA gave a switch fluorescence ratio of 4.18 ± 0.3. GACCGAGTTC showed a switch fluorescence ratio of 1.005 ± 0.0024. Work on GACCGGATTC yielded a switch fluorescence ratio of 1.06 ± 0.11. GACCGGGAGC showed a switch fluorescence ratio of 0.995 ± 0.011. Sequence GACCGGGCTC has a switch fluorescence ratio of 0.97643 ± 0.00079. GACCTCGGGA was tested, and the switch fluorescence ratio was 1.024 ± 0.0028. In the case of GACCTGAGCA, the switch fluorescence ratio is reported as 1.113 ± 0.0034. GACCTTAATG gave a switch fluorescence ratio of 1.05 ± 0.013. In the case of GACCTTTAAA, the switch fluorescence ratio is reported as 1.02 ± 0.011. GACGAAGCAT showed a switch fluorescence ratio of 5.33 ± 0.82. GACGACGGAG gave a switch fluorescence ratio of 0.969 ± 0.034. For GACGAGGAGG, the switch fluorescence ratio was 1 ± 0.017. GACGAGTGTG showed a switch fluorescence ratio of 0.98731 ± 0.00011. GACGATAGAT showed a switch fluorescence ratio of 1.048 ± 0.00083. GACGATATGT gave a switch fluorescence ratio of 1.07 ± 0.041. In the case of GACGATGCGG, the switch fluorescence ratio is reported as 1.196 ± 0.0058. GACGATGTCT gave a switch fluorescence ratio of 1.0078 ± 0.00071. With GACGCATTTT the switch fluorescence ratio was 2.18 ± 0.17. GACGCGTTTA was tested, and the switch fluorescence ratio was 1.07 ± 0.034. GACGCTCAGC showed a switch fluorescence ratio of 1.39 ± 0.019.
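Note: ATP exposure 15 min at 22 °C before imaging.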
